Laboratory results published in US20250076311A1 (Chugai, published 2025).
Residue numbers refer to the chain shown, from its start. One block for each binder: values may come before it.

Experiments:
[1] = target: T1, cynomolgus monkey FcγRIIa2 extracellular domain with C-terminal His-tag (cynomolgus monkey); assay: SPR (Biacore), antibody captured, FcgR analyte
T1 construct: also called cyno FcgRIIa2; cynoFcγRIIa2
T1 chain: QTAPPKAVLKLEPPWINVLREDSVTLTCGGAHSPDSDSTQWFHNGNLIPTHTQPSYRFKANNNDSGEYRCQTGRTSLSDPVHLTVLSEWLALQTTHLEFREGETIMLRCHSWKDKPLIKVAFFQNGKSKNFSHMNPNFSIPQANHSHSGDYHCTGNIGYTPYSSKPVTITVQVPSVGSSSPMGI

[2] = target: T2, human FcγRIIb extracellular domain with C-terminal His-tag (human, UniProt P31994 43-217); assay: SPR (Biacore), antibody captured, FcgR analyte
T2 construct: also called human FcgRIIb
T2 sequence: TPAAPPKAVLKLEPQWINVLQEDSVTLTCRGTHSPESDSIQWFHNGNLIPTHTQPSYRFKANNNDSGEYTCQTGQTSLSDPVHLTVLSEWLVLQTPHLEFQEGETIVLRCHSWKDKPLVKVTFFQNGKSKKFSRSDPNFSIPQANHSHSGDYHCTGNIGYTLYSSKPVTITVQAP

[3] = target: T3, human FcγRIIaR extracellular domain with C-terminal His-tag (human, UniProt P12318 34-217); assay: SPR (Biacore), KD of SG1 / KD of variant
T3 construct: also called human FcgRIIaR; FcγRIIa (type R)
T3 chain: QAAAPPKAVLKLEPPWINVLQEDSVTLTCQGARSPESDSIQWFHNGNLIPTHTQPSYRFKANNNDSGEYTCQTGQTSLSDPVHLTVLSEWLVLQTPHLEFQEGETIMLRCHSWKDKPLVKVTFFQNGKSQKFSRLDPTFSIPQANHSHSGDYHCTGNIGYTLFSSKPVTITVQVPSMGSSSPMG

[4] = target: T4, human FcγRIIIaV extracellular domain with C-terminal His-tag (human, UniProt P08637 17-208); assay: SPR (Biacore), antibody captured, FcgR analyte
T4 construct: also called human FcgRIIIaV
T4 sequence (P08637 17-208 F176V): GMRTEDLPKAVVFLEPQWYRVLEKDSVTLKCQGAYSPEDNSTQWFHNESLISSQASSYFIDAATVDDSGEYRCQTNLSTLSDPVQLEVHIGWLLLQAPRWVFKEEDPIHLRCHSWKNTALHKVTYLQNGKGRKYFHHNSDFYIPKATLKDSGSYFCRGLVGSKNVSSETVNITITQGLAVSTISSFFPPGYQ

[5] = target: T1, cynomolgus monkey FcγRIIa2 …; assay: SPR (Biacore), KD of SG1 / KD of variant
[6] = target: T2, human FcγRIIb extracellular domain with …; assay: SPR (Biacore), KD of SG1 / KD of variant
[7] = target: T5, cynomolgus monkey FcγRIIa3 extracellular domain with C-terminal His-tag (cynomolgus monkey); assay: SPR (Biacore), KD of SG1 / KD of variant
T5 construct: also called cyno FcgRIIa3; cynoFcγRIIa3
T5 chain: T1 chain with K127I, N130K, H133P, Q142R

[8] = target: T6, human FcγRIIaH extracellular domain with C-terminal His-tag (human, UniProt P12318 34-217); assay: SPR (Biacore), antibody captured, FcgR analyte
T6 construct: also called human FcgRIIaH; FcγRIIa (type H)
T6 sequence: T3 chain with R134H

[9] = target: T4, human FcγRIIIaV extracellular domain …; assay: SPR (Biacore), KD of SG1 / KD of variant
[10] = target: T7, cynomolgus monkey FcγRIIb extracellular domain with C-terminal His-tag (cynomolgus monkey); assay: SPR (Biacore), KD of SG1 / KD of variant
T7 construct: also called cyno FcgRIIb; cynoFcγRIIb
T7 chain: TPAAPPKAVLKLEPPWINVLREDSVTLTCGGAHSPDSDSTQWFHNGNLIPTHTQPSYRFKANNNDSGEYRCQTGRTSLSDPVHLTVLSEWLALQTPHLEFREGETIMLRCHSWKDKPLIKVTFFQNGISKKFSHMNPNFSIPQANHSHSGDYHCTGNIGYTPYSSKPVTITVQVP

[11] = target: T8, cynomolgus monkey FcγRIIa1 extracellular domain with C-terminal His-tag (cynomolgus monkey); assay: SPR (Biacore), antibody captured, FcgR analyte
T8 construct: also called cyno FcgRIIa1; cynoFcγRIIa1
T8 chain: T1 chain with T95P, A121T, K127I, S128A, N130K, N135D, Q142R

[12] = target: T5, cynomolgus monkey FcγRIIa3 …; assay: SPR (Biacore), antibody captured, FcgR analyte
[13] = target: T6, human FcγRIIaH extracellular domain …; assay: SPR (Biacore), KD of SG1 / KD of variant

Kd [1]: 2900 nM
B1: M103205H795-MY455/M103202L889-SK1 (antibody, human IgG1, kappa)
heavy: QVTLKESGPVLVKPTETLTLTCTVSGIDLSHDDISWVRQAPGKGLEWVGIISYAGSTYYASWAKGRLTISKDTSKNQVVLTMTNMDPVDTATYYCARGVPAYSHGGDLWGQGTLVTVSSASTKGPSVFPLAPSSKSTSGGTAALGCLVKDYFPEPVTVSWNSGALTSGVHTFPAVLQSSGLYSLSSVVTVPSSSLGTQTYICNVNHKPSNTKVDKKVEPKSCDKTHTCPPCPATELLTGPSVFLFPPKPKDTLMISRTPEVTCVVVDVSDEDPEVKFNWYVDGVEVHNAKTKPREEQYNSTYRVVSVLTVLHQDWLNGKEYKCKVSNKALPKPIEKTISKAKGQPREPQVYTLPPSREEMTKNQVSLTCLVKGFYPSDIAVEWESNGQPENNYKTTPPVLDSDGSFFLYSKLTVDKSRWQQGNVFSCSVMHEALHNHYTQKSLSLSP
light: DIVMTQSPATLSLSPGERATLSCTSSQSVYHANWLSWFQQKPGQPPKLLIYWASTLAYGVPSRFSGSGSGTDFTLTISSLQPEDAATYYCAGGYGGGRYAFGQGTKVEIKRTVAAPSVFIFPPSDEQLKSGTASVVCLLNNFYPREAKVQWKVDNALQSGNSQESVTEQDSKDSTYSLSSTLTLSKADYEKHKVYACEVTHQGLSSPVTKSFNRGEC
notes: Substitutions in EU numbering on SG1

Kd [2]: 2300 nM
KD fold (SG1 = 1) [3]: 2.3 fold
B2: M103205H795-MY470/M103202L889-SK1 (antibody)
chain 1: B1 heavy with A233Q, T234P
chain 2: B1 light

Kd [4]: 4800 nM
Kd [2]: 2300 nM
KD fold (SG1 = 1) [5]: 2.8 fold
B3: M103205H795-MY463/M103202L889-SK1 (antibody)
chain 1: B1 heavy with A233H, T234P
chain 2: B1 light

KD fold (SG1 = 1) [3]: 2.3 fold
KD fold (SG1 = 1) [6]: 1.6 fold
KD fold (SG1 = 1) [7]: 3.5 fold
B4: M103205H795-MY471/M103202L889-SK1 (antibody)
chain 1: B1 heavy with A233R, T234P
chain 2: B1 light

Kd [8]: 130 nM
KD fold (SG1 = 1) [6]: 2.9 fold
B5: M103205H795-MY474/M103202L889-SK1 (antibody)
heavy: B1 heavy with A233V, T234P
light: B1 light
notes: as for B1

Kd [1]: 1800 nM
KD fold (SG1 = 1) [9]: 0.2 fold
KD fold (SG1 = 1) [10]: 3.6 fold
B6: M103205H795-MY462/M103202L889-SK1 (antibody)
heavy: B1 heavy with A233G, T234P
light: B1 light
notes: as for B1

Kd [8]: 180 nM
Kd [11]: 1800 nM
Kd [12]: 3500 nM
KD fold (SG1 = 1) [5]: 2.8 fold
KD fold (SG1 = 1) [9]: 0.2 fold
KD fold (SG1 = 1) [13]: 3.6 fold
KD fold (SG1 = 1) [10]: 3.6 fold
B7: M103205H795-MY461/M103202L889-SK1 (antibody)
heavy: B1 heavy with A233F, T234P
light: B1 light
notes: as for B1
